Results: US20210292396A1

Experiments:
Assay in all cases: cell-based or functional assay
[1] = target: HIV Env of isolate 96ZM651.02 (HIV)
[2] = target: HIV Env of isolate 247-23 (HIV)
[3] = target: Env of HIV isolate 426c (clade C) (HIV)
[4] = target: HIV Env of isolate CNE15 (HIV)
[5] = target: Env of HIV isolate 0260.v5.c36 (clade A) (HIV)
[6] = target: Env of HIV isolate TRJO.58 (clade B) (HIV)
[7] = target: Env of HIV isolate KER2008.12 (clade A) (HIV)
[8] = target: HIV Env of isolate CH119.10 (HIV)
[9] = target: HIV Env of isolate 25711-2.4 (HIV)
[10] = target: HIV Env of isolate CNE53 (HIV)
[11] = target: Env of HIV isolate C1080.c3 (clade AE) (HIV)
[12] = target: Env of HIV isolate 247-23 (clade D) (HIV)
[13] = target: Env of HIV isolate DU151.02 (clade C) (HIV)
[14] = target: Env of HIV isolate 3718.v3.c11 (clade A) (HIV)
[15] = target: Env of HIV isolate SF162.LS (clade B) (HIV)
[16] = target: HIV Env of isolate 286.36 (HIV)
[17] = target: Env of HIV isolate 6540.v4.c1 (clade AC) (HIV)
[18] = target: Env of HIV isolate RHPA.7 (clade B) (HIV)
[19] = target: Env of HIV isolate 263-8 (clade AG) (HIV)
[20] = target: Env of HIV isolate 6405.v4.c34 (clade D) (HIV)
[21] = target: HIV Env of isolate 001428-2.42 (HIV)
[22] = target: Env of HIV isolate UG037.8 (clade A) (HIV)
[23] = target: Env of HIV isolate 0013095-2.11 (clade C) (HIV)
[24] = target: Env of HIV isolate 45_01dG5 (clade B) (HIV)
[25] = target: HIV Env of isolate ZM109.4 (HIV)
[26] = target: Env of HIV isolate CM244.ec1 (clade AE) (HIV)
[27] = target: Env of HIV isolate SS1196.01 (clade B) (HIV)
[28] = target: HIV Env of isolate CH181.12 (HIV)
[29] = target: HIV Env of isolate 6471.v1.c16 (HIV)
[30] = target: HIV Env of isolate 6644.v2.c33 (HIV)
[31] = target: Env of HIV isolate CNE58 (clade C in Table 7) (HIV)
[32] = target: Envelope protein of SVA.MLV (clade NA)
[33] = target: Env of HIV isolate 25925-2.22 (clade C) (HIV)
[34] = target: Env of HIV isolate T278-50 (clade AG) (HIV)
[35] = target: HIV Env of isolate ZM53.12 (HIV)
[36] = target: Envelope protein of SIVmac251.30.SG3 (clade NA)
[37] = target: Env of HIV isolate 235-47 (clade AG) (HIV)
[38] = target: Env of HIV isolate BR07.DG (clade B) (HIV)
[39] = target: Env of HIV isolate CAP45.G3 (clade C) (HIV)
[40] = target: Env of HIV isolate ZM53.12 (clade C) (HIV)
[41] = target: Env of HIV isolate CNE7 (clade BC) (HIV)
[42] = target: Env of HIV isolate CNE31 (clade C) (HIV)
[43] = target: HIV Env of isolate X1193.c1 (HIV)
[44] = target: Env of HIV isolate 3873.v1.c24 (clade C) (HIV)
[45] = target: HIV Env of isolate 3637.v5.c3 (HIV)
[46] = target: Env of HIV isolate CNE56 (clade AE) (HIV)
[47] = target: HIV Env of isolate A07412M1.vrc12 (HIV)
[48] = target: HIV Env of isolate 00836-2.5 (HIV)
[49] = target: Env of HIV isolate A03349M1.vrc4a (clade D) (HIV)
[50] = target: Env of HIV isolate TV1.29 (clade C) (HIV)

B1: ePGT121.15 (ePGT121.15.H6 VH and ePGT121.15.L1 VL) (antibody, V domains shown)
VH: QMQLQESGPGLVKPGETLSLTCSVSGASISSSYWSWLRETPGKGLEWIGYTHHSGDTNYAPSLKSRVHLGLHPSKNQVSLSLTSVTAADTAVYYCARTLHGRRIYGVVAFNEFFTYFYWEVWGKGTQVTVSS
VL: SDISVAPGETVRISCGGESIGSRAVQWYQHRAGQAPKLIIYNNQDRPPGIPERFSGSPDIDFGTTATLTITNVEAGDEATYYCHIWDSRRPTNWVFGGGTTLTVL
Q: What does the source list for B1?
A: IC80, pseudovirus neutralization [1]: 4 ng/mL; IC80, pseudovirus neutralization [2]: > 50000 ng/mL; IC50, pseudovirus neutralization [3]: 385 ng/mL; IC80, pseudovirus neutralization [4]: > 50000 ng/mL; IC50, pseudovirus neutralization [5]: 4 ng/mL; IC50, pseudovirus neutralization [6]: 7 ng/mL; IC50, pseudovirus neutralization [7]: 10 ng/mL; IC80, pseudovirus neutralization [8]: 16 ng/mL; IC80, pseudovirus neutralization [9]: 8 ng/mL; IC80, pseudovirus neutralization [10]: 15 ng/mL; IC50, pseudovirus neutralization [11]: > 50000 ng/mL; IC50, pseudovirus neutralization [12]: > 50000 ng/mL; IC50, pseudovirus neutralization [13]: 2 ng/mL; IC50, pseudovirus neutralization [14]: 489 ng/mL; IC50, pseudovirus neutralization [15]: 3 ng/mL; IC80, pseudovirus neutralization [16]: 6 ng/mL; IC50, pseudovirus neutralization [17]: > 50000 ng/mL; IC50, pseudovirus neutralization [18]: 3 ng/mL; IC50, pseudovirus neutralization [19]: 14 ng/mL; IC50, pseudovirus neutralization [20]: 3 ng/mL; IC80, pseudovirus neutralization [21]: 5 ng/mL; IC50, pseudovirus neutralization [22]: 4 ng/mL; IC50, pseudovirus neutralization [23]: 3010 ng/mL; IC50, pseudovirus neutralization [24]: 3 ng/mL; IC80, pseudovirus neutralization [25]: > 50000 ng/mL; IC50, pseudovirus neutralization [26]: 7020 ng/mL; IC50, pseudovirus neutralization [27]: 3 ng/mL; IC80, pseudovirus neutralization [28]: 8 ng/mL; IC80, pseudovirus neutralization [29]: 6350 ng/mL; IC80, pseudovirus neutralization [30]: 8 ng/mL; IC50, pseudovirus neutralization [31]: 23 ng/mL; IC50, pseudovirus neutralization [32]: > 50000 ng/mL; IC50, pseudovirus neutralization [33]: 7 ng/mL; IC50, pseudovirus neutralization [34]: 4870 ng/mL; IC80, pseudovirus neutralization [35]: 62 ng/mL; IC50, pseudovirus neutralization [36]: > 50000 ng/mL; IC50, pseudovirus neutralization [37]: 9 ng/mL; IC50, pseudovirus neutralization [38]: 9 ng/mL; IC50, pseudovirus neutralization [39]: 2250 ng/mL; IC50, pseudovirus neutralization [40]: 8 ng/mL; IC50, pseudovirus neutralization [41]: 5 ng/mL; IC50, pseudovirus neutralization [42]: 42 ng/mL; IC80, pseudovirus neutralization [43]: 7 ng/mL; IC50, pseudovirus neutralization [44]: 4 ng/mL; IC80, pseudovirus neutralization [45]: > 50000 ng/mL; IC50, pseudovirus neutralization [46]: > 50000 ng/mL; IC80, pseudovirus neutralization [47]: 12 ng/mL; IC80, pseudovirus neutralization [48]: > 50000 ng/mL; IC50, pseudovirus neutralization [49]: 6 ng/mL; IC50, pseudovirus neutralization [50]: 4 ng/mL
